Results taken from paper PMC3903306 (Biochemistry, 2012).

Target: the molecule itself
Experiment: cross-linking

B1: IpgC (natural protein)
chain: MSLNITENESISTAVIDAINSGATLKDINAIPDDMMDDIYSYAYDFYNKGRIEEAEVFFRFLCIYDFYNVDYIMGLAAIYQIKEQFQQAADLYAVAFALGKNDYTPVFHTGQCQLRLKAPLKAKECFELVIQHSNDEKLKIKAQSYLDAIQDIKE
stoichiometry N: 2
